Reference: US20200231684A1 (published 2020)
Where a chain is given by its changes, count along the chain named. Where two headings read alike, the source gives them in different places. Blank lines part the entries; values can stand above or below the binder they belong to.

What was measured:
[1] = molecular target: T1, human IL-36R on cells (human, UniProt Q9HB29 20-575); experiment: cell-based or functional assay
T1 sequence (looked up): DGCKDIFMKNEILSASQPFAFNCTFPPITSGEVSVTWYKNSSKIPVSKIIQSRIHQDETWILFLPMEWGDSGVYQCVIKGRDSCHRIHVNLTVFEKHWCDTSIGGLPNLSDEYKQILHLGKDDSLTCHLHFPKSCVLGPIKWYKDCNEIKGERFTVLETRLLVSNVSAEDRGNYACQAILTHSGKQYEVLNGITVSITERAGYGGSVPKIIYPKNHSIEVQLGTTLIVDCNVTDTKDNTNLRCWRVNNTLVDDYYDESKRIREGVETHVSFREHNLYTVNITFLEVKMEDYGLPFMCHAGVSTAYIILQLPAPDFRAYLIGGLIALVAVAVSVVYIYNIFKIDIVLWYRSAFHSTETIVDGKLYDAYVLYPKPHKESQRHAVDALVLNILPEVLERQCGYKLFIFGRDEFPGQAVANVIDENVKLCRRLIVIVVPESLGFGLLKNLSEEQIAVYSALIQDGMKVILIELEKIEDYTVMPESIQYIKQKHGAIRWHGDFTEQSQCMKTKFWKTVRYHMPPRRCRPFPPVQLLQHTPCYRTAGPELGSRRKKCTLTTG

[2] = molecular target: T2, recombinant human IL-36R (ECD) (human, UniProt Q9HB29 20-332); experiment: SPR (ProteOn), single IL-36R surface coat concentration
T2 construct: range 20-332; also called IL-1RL2; IL-1Rrp2
T2 sequence (looked up): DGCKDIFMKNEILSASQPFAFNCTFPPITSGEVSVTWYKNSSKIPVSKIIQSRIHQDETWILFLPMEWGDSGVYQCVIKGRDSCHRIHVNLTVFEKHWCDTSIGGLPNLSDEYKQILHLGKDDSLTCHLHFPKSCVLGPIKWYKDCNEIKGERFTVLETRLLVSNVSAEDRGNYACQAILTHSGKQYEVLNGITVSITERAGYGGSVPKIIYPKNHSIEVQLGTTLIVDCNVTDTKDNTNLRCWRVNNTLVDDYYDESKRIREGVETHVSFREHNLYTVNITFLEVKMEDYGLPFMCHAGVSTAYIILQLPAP
Experimental: A) Kinetics and binding affinities of anti-IL-36R antibodies binding to recombinant human IL-36R were measured using the Proteon (Bio-Rad, Hercules, Calif.) using material generated from hybridoma following single column purification. […] Binding of the chimeric anti-IL36R IgGs is equivalent to the respective mouse leads.

[3] = molecular target: T1, human IL-36R on cells; experiment: cell-based or functional assay; remark: listed apart in the source
[4] = molecular target: cynomolgus IL-36R on BaF/3 cells (cynomolgus, UniProt A0A2K5WSK9 20-558); experiment: cell-based or functional assay
cynomolgus IL-36R on BaF/3 cells, sequence (A0A2K5WSK9 entry or part of it): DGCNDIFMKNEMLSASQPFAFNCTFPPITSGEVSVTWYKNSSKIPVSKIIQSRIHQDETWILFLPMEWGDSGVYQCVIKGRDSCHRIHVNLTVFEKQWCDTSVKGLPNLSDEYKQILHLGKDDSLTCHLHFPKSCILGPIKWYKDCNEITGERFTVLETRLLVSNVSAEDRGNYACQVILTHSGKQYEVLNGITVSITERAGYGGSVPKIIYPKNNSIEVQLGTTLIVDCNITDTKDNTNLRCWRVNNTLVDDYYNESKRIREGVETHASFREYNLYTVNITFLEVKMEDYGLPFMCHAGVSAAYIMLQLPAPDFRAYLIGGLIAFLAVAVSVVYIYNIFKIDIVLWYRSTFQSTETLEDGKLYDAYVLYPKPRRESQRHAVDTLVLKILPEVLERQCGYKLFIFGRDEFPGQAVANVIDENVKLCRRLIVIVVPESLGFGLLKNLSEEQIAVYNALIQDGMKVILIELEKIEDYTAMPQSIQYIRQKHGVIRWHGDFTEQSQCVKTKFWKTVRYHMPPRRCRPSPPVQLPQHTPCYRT

[5] = molecular target: T1, human IL-36R on cells; experiment: cell-based or functional assay; remark: listed apart in the source
[6] = molecular target: T2, recombinant human IL-36R (ECD); experiment: SPR (ProteOn), recombinant human IL-36R at 7 surface densities, global fit
Experimental: A) Kinetics and binding affinities of anti-IL-36R antibodies binding to recombinant human IL-36R were measured using the Proteon (Bio-Rad, Hercules, Calif.) using material generated from hybridoma following single column purification. […] The binding affinities of the mouse antibodies to human IL-36R run at 7 different surface densities (globally fit) is shown in Table 1. Binding of the chimeric anti-IL36R IgGs is equivalent to the respective mouse leads.

[7] = molecular target: T3, mouse IL-36R (mouse, UniProt Q9ERS7 22-338); experiment: BLI (Fortebio Octet), antibody injected over antigen surface
T3 sequence (looked up): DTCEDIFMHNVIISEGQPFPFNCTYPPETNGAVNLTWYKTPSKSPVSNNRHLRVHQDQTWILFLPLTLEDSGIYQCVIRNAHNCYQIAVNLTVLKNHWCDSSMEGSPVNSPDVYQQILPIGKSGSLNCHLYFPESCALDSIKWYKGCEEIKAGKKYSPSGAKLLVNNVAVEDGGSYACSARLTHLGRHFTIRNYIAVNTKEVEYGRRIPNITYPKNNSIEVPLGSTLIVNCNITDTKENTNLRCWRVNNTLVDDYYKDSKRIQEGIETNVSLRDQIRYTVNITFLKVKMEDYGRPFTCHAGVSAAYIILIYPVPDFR
Experimental: (§1) B) Molecular selectivity over mouse IL-36R and human IL-1R1 The mouse and chimeric anti-IL-36R antibodies were also injected over either a mouse IL-36R or a human IL-1R1 surface at a concentration of 100 nM. The binding signal to mouse IL-36R and to human IL-1R1 for these antibodies measured using the Fortebio Octet (Fortebio, Menlo Park, Calif.) is zero, which indicates these antibodies selectively bind to human IL-36R.

[8] = molecular target: T4, human IL-1R1 (human, UniProt P14778 18-336, limits assumed); experiment: as above
T4 construct: also called IL-1RI
T4 sequence (looked up): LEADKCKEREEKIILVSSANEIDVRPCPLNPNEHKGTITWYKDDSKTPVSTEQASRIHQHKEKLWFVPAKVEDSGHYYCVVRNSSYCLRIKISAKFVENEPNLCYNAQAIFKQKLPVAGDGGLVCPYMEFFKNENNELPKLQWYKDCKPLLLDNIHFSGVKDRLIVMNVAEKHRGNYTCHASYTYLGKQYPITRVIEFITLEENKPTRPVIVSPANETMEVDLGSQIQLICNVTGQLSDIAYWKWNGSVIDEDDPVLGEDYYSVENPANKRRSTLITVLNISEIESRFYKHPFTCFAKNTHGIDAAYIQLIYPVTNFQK
Experimental: as §1

[9] = molecular target: T1, human IL-36R on cells; experiment: flow cytometry, HEK293 cells transfected with full-length human IL-36R
Experimental: HEK293 cells transfected with full-length human IL-36R or NCI/ADR-RES cells were passaged for 24 hours prior to staining. Cells were removed from flasks by rinsing with 10 ml of 5 mM EDTA in PBS, and then incubated at 37° C. for 10 min with an additional 10 ml of 5 mM EDTA and 2.5 ml of Accumax to declump/disperse cells. Antibodies were then diluted to specified concentrations in PBS+2% BSA, and cells incubated for 20 min at room temperature. Excess antibody was then washed by adding 200 μl of PBS and then centrifuged. Secondary reagent was then added at 50 μl per well and cells are incubated for 15 min at room temperature and then washed as above. Cells were resuspended in 200 μl PBS and analyzed by flow cytometry.

IC90, pNFκB, NCI/ADR-RES cells, trun-IL-36a [1]: 9.7 nM | IC90, pNFκB, NCI/ADR-RES cells, trun-IL-36b [1]: 8.6 nM | IC90, pNFκB, NCI/ADR-RES cells, trun-IL-36g [1]: 6.1 nM
B1: Antibody C2 (antibody, human IgG1, kappa, L234A L235A, V domains shown)
VH: QVQLQESGPGLVKPSETLSITCTVSGFSLTDYAVHWIRQPPGKGLEWIGVIWSDGSTDYNAPFKSRVTISKDNSKSQVSFKMSSVTADDTAVYYCARKGGYSGSWFAYWGQGTLVTVSS
VL: EIVMTQSPATLSVSPGVRATLSCKASQDVGTNVLWYQQKPGQAPRPLIYSASYRHSGIPDRFSGSGSGTEFTLTISSLQSEDFAVYYCQQYSRYPLTFGQGTKLEIKR

IC90, pNFκB, NCI/ADR-RES cells, trun-IL-36a [1]: 9.8 nM | IC90, pNFκB, NCI/ADR-RES cells, trun-IL-36b [1]: 5.6 nM | IC90, pNFκB, NCI/ADR-RES cells, trun-IL-36g [1]: 5.1 nM
B2: Antibody C3 (antibody, human IgG1, kappa, L234A L235A, V domains shown)
VH: B1 VH with K13A, I20L, P40F, Y59F, N73T, S76N, M82L, A87T
VL: B1 VL

Kd [2]: < 0.1 nM | IC90, IL-8 release, human primary keratinocytes (NHK), trun-IL-36a [3]: 20.8 nM | IC90, IL-8 release, human primary keratinocytes (NHK), trun-IL-36b [3]: 46 nM | IC90, IL-8 release, human primary keratinocytes (NHK), trun-IL-36g [3]: 2.4 nM | IC90, pNFκB, human primary keratinocytes (NHK), trun-IL-36a [3]: 10.7 nM | IC90, pNFκB, human primary keratinocytes (NHK), trun-IL-36b [3]: 14.4 nM | IC90, pNFκB, human primary keratinocytes (NHK), trun-IL-36g [3]: 1.7 nM | IC90, pNFκB, BaF/3 cynomolgus IL-36R cells, trun-IL-36a [4]: 0.2 nM | IC90, pNFκB, BaF/3 cynomolgus IL-36R cells, trun-IL-36b [4]: 1.6 nM | IC90, pNFκB, BaF/3 cynomolgus IL-36R cells, trun-IL-36g [4]: 1.5 nM | IC90, GM-CSF release, NCI/ADR-RES cells, trun-IL-36a [5]: 4.8 nM | IC90, GM-CSF release, NCI/ADR-RES cells, trun-IL-36b [5]: 1.4 nM | IC90, GM-CSF release, NCI/ADR-RES cells, trun-IL-36g [5]: 2 nM | IC90, IL-6 release, NCI/ADR-RES cells, trun-IL-36a [5]: 19 nM | IC90, IL-6 release, NCI/ADR-RES cells, trun-IL-36b [5]: 3.8 nM | IC90, IL-6 release, NCI/ADR-RES cells, trun-IL-36g [5]: 1.9 nM | IC90, IL-8 release, NCI/ADR-RES cells, trun-IL-36a [5]: 3.3 nM | IC90, IL-8 release, NCI/ADR-RES cells, trun-IL-36b [5]: 0.6 nM | IC90, IL-8 release, NCI/ADR-RES cells, trun-IL-36g [5]: 1.4 nM | IC90, pNFκB, NCI/ADR-RES cells, trun-IL-36a [5]: 3.4 nM | IC90, pNFκB, NCI/ADR-RES cells, trun-IL-36b [5]: 3.4 nM | IC90, pNFκB, NCI/ADR-RES cells, trun-IL-36g [5]: 2.5 nM | Kd [6]: 0.057 nM | binding result [7]: no binding (tested: 100 nM) | binding result [8]: no binding (tested: 100 nM)
B3: antibody 73C5 (antibody, V domains shown)
VH: QVQLKESGPGLVAPSQSLSITCTVSGFSLTNYAVHWVRQFPGKGLEWLGVIWSDGSTDFNAPFKSRLSINKDNSKSQVFFKMNSLQIDDTAIYYCARKGGYSGSWFAYWGQGTLVTVSA
VL: DIVMTQSQKFLSTSVGVRVSVTCKASQDVGTNVLWYQQKIGQSPKPLIYSASYRHSGVPDRFTGSGSGTDFTLIISNVQSEDLAEYFCQQYSRYPLTFGPGTKLELK
notes: Mouse monoclonal from hybridoma; also called 73C5C10; Mouse 73C5

EC50 [9]: 0.426 nM | Kd [2]: < 0.1 nM | IC90, pNFκB, BaF/3 cynomolgus IL-36R cells, trun-IL-36a [4]: > 4000 nM | IC90, pNFκB, BaF/3 cynomolgus IL-36R cells, trun-IL-36b [4]: > 333 nM | IC90, pNFκB, BaF/3 cynomolgus IL-36R cells, trun-IL-36g [4]: > 333 nM | IC90, pNFκB, NCI/ADR-RES cells, trun-IL-36g [5]: 1.9 nM | binding result [7]: no binding (tested: 100 nM) | binding result [8]: no binding (tested: 100 nM)
B4: antibody 76E10 (antibody, V domains shown)
VH: QVQLKESGPVLVAPSQSLSITCTVSGFSLTNYGVHWVRQPPGKGLEWLGVIWPVGSTNYNSALMSRLSIHKDNSKSQVFLRMNSLQTDDTAIYYCAKMDWDDFFDYWGQGTTLTVSS
VL: DIVMTQSQKFMSATVGGRVNITCKASQNVGRAVAWYQQKPGQSPKLLTHSASNRYTGVPDRFTGSGSGTDFTLTITNMQSEDLADYFCQQYSSYPLTFGAGTKLDLK
notes: Mouse monoclonal from hybridoma; also called 76E10E8
